The data set concerns the molecule itself. Kind of data set: SEC; equal concentrations of TALON IMAC eluate fractionated over a Superdex S200 column (Supplementary Fig. 2a). A general note: Size exclusion chromatography separates by hydrodynamic size, large species first.

B1: Smt3-His6-tagged wild type 53BP1 fragment (amino acids 1131–1292) (domain or fragment, UniProt Q12888 1131-1292, looked up)
chain: GRSTNKENPSKALIERPSQNNIGIQTMECSLRVPETVSAATQTIKNVCEQGTSTVDQNFGKQDATVQTERGSGEKPVSAPGDDTESLHSQGEEEFDMPQPPHGHVLHRHMRTIREVRTLVTRVITDVYYVDGTEVERKVTEETEEPIVECQECETEVSPSQT
notes: No cleavage of the tags is described; the IMAC eluate went onto the Superdex S200 column; also called LC8-OD; source: E. coli BL21(DE3), pET-17b, purified (TALON IMAC column)
In the case of B1, the binding result is “binds”.

The values are drawn from PMC6297349, “The ASCIZ-DYNLL1 axis promotes 53BP1-dependent non-homologous end joining and PARP inhibitor sensitivity” (Nature Communications, 2018).
